Patent US20060140929A1 (Merck KGaA, published 2006)
Changes are numbered by the printed parent chain. In names and notes the source's numbering stands.

B1: hirudin mutein M 37 (L13T) (other)
chain: VVYTDCTESGQNTCLCEGSVVCGQGNKCILGSDGEKNQCVTGEGTPKPESHNDGDFEEIPEEYLQ
B2: hirudin mutein M 38 (L15A) (other)
chain: B1 chain with T13L, L15A
B3: hirudin mutein M 60 (I29T) (other)
chain: B1 chain with T13L, I29T
B4: hirudin mutein M 53 (I29G) (other)
chain: B1 chain with T13L, I29G
B5: hirudin mutein M 61 (L30A) (other)
chain: B1 chain with T13L, L30A
B6: hirudin mutein M 58 (I29R) (other)
chain: B1 chain with T13L, I29R
B7: hirudin mutein M 62 (L30D) (other)
chain: B1 chain with T13L, L30D
B8: hirudin mutein M 63 (L30E) (other)
chain: B1 chain with T13L, L30E
B9: hirudin mutein M 49 (V21R) (other)
chain: B1 chain with T13L, V21R
B10: hirudin mutein M 47 (V21P) (other)
chain: B1 chain with T13L, V21P
B11: hirudin mutein M 46 (V21N) (other)
chain: B1 chain with T13L, V21N
B12: hirudin mutein M 54 (I29H) (other)
chain: B1 chain with T13L, I29H
B13: hirudin mutein M 57 (I29Q) (other)
chain: B1 chain with T13L, I29Q
B14: hirudin mutein M 50 (I29A) (other)
chain: B1 chain with T13L, I29A
B15: hirudin mutein M 56 (I29N) (other)
chain: B1 chain with T13L, I29N
B16: hirudin mutein M 51 (I29D) (other)
chain: B1 chain with T13L, I29D
B17: hirudin mutein M 48 (V21Q) (other)
chain: B1 chain with T13L, V21Q
B18: hirudin mutein M 52 (I29E) (other)
chain: B1 chain with T13L, I29E
B19: hirudin mutein M 55 (I29K) (other)
chain: B1 chain with T13L, I29K
B20: hirudin mutein M 59 (I29S) (other)
chain: B1 chain with T13L, I29S

Target: thrombin
Experiment: cell-based or functional assay

Row | Binder | Relative Activity (ratio of variant IC50/WT IC50), chromogenic thrombin inhibition assay
1 | B1 | 0.6 ratio
2 | B2 | 0.9 ratio
3 | B3 | 1 ratio
4 | B4 | 1.8 ratio
5 | B5 | 1 ratio
6 | B6 | 1 ratio
7 | B7 | 2 ratio
8 | B8 | 3.33 ratio
9 | B9 | 0.77 ratio
10 | B10 | 1 ratio
11 | B11 | 0.83 ratio
12 | B12 | 1 ratio
13 | B13 | 1 ratio
14 | B14 | 1 ratio
15 | B15 | 1 ratio
16 | B16 | 1 ratio
17 | B17 | 0.83 ratio
18 | B18 | 1 ratio
19 | B19 | 1 ratio
20 | B20 | 1 ratio
